The target of experiment [1] is flotillin 2-MBP (Laodelphax striatellus). In words: MST; Monolith NT.115; flotillin 2-MBP labeled with NHS-495 held at 10 μM, NP-GST diluted from 17.5 μM to 0.0417 nM; 25°C.
For experiment [2] the target is unchanged. In words: BLI; Octet RED96e; biotinylated flotillin 2-MBP (5 μM) loaded on streptavidin biosensors; NP-GST 0 to 4,000 nM in 1× PBS; 25°C; buffer 20 mM NaH2PO4, 150 mM NaCl, 0.05% Tween 20.

pKd: −log10 of the molar value.

Drawing on article PMC9006895, this text covers Kd, koff and kon for one substance.

Consider NP-GST (natural protein), for which the pKd in experiment [1] was 6.10. In experiment [2], this substance had a pKd of 6.21, an off-rate constant (koff) of 0.00382 s⁻¹ and a kon of 6170 M⁻¹ s⁻¹.
